Measured values reported in publication PMC5379953 (The Journal of Cell Biology, 2017).
Residue numbers refer to the chain shown, from its start. In names and notes the source's numbering stands.

B1: human BICD2^2–422::Strep-tag II (domain or fragment, UniProt Q8TD16 2-422, looked up)
chain: SAPSEEEEYARLVMEAQPEWLRAEVKRLSHELAETTREKIQAAEYGLAVLEEKHQLKLQFEELEVDYEAIRSEMEQLKEAFGQAHTNHKKVAADGESREESLIQESASKEQYYVRKVLELQTELKQLRNVLTNTQSENERLASVAQELKEINQNVEIQRGRLRDDIKEYKFREARLLQDYSELEEENISLQKQVSVLRQNQVEFEGLKHEIKRLEEETEYLNSQLEDAIRLKEISERQLEEALETLKTEREQKNSLRKELSHYMSINDSFYTSHLHVSLDGLKFSDDAAEPNNDAEALVNGFEHGGLAKLPLDNKTSTPKKEGLAPPSPSLVSDLLSELNISEIQKLKQQLMQMEREKAGLLATLQDTQKQLEHTRGSLSEQQEKVTRLTENLSALRRLQASKERQTALDNEKDRDSHEDG
B2: human Spindly^2–359::Strep-tag II (N-terminal coiled-coil region) (domain or fragment, UniProt Q96EA4 2-359, looked up)
chain: EADIITNLRCRLKEAEEERLKAAQYGLQLVESQNELQNQLDKCRNEMMTMTESYEQEKYTLQREVELKSRMLESLSCECEAIKQQQKMHLEKLEEQLSRSHGQEVNELKTKIEKLKVELDEARLSEKQLKHQVDHQKELLSCKSEELRVMSERVQESMSSEMLALQIELTEMESMKTTLKEEVNELQYRQEQLELLITNLMRQVDRLKEEKEEREKEAVSYYNALEKARVANQDLQVQLDQALQQALDPNSKGNSLFAEVEDRRAAMERQLISMKVKYQSLKKQNVFNREQMQRMKLQIATLLQMKGSQTEFEQQERLLAMLEQKNGEIKHLLGEIRNLEKFKNLYDSMESKPSVDSG
B3: human Spindly^2–359 F258A::Strep-tag II (domain or fragment, UniProt Q96EA4 2-359, looked up)
chain: B2 chain with F257A
B4: GST::LIC1::6×His C-terminal region (residues 388–523) (domain or fragment, human, UniProt Q9Y6G9 388-523, looked up)
chain: PTAAGRPVDASPRVPGGSPRTPNRSVSSNVASVSPIPAGSKKIDPNMKAGATSEGVLANFFNSLLSKKTGSPGGPGVSGGSPAGGAGGGSSGLPPSTKKSGQKPVLDVHAELDRITRKPVTVSPTTPTSPTEGEAS

Columns and labels:
[1] = target: GST::LIC1::6×His, full-length dynein light intermediate chain 1 (residues 1–523) (human, UniProt Q9Y6G9 1-523); assay: pull-down
[2] = target: B2; assay: pull-down

Row | binding result [1] | binding result [2] | Binder
1 | binds |  | B1
2 | binds |  | B2
3 | binds |  | B3
4 |  | binds | B4
